Test system: K562 CRISPRi cells
Experiment: Constant region variant library pooled growth screen, K562
Assay type: cell-based, human
Settings: sgRNA constant region variants; activity relative to the original, un-modified constant region cr995
Procedure, shortened: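 Pooled library transduced into K562 CRISPRi cells in duplicate, puromycin-selected, grown at >2000× coverage and sampled after 4 to 8 days. Phenotypes per targeting sequence:constant region pair were normalized to the unmodified-scaffold pairing to give relative activity.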

B1: cr939 (nucleic acid)
guide: GTTTAAGAGCTAAGCTGGAAACAGCATAGCAACTTTAAATAAGGCAAGTCCCTTATCAACTTGAAAAAGTGGCACCGAGTCGGTGCT
modifications: listed as DNA, chemistry not fully specified
  Mean relative activity: 4.94E−05

B2: cr912 (nucleic acid)
guide: GTTTAAGAGCTAAGCTGGAAACAGCATAGCAAGCTTAAATGAGGCTAGTCCGGTATCAACTTGAAAAAGTGGCACCGAGTCGGTGCT
modifications: listed as DNA, chemistry not fully specified
  Mean relative activity: −1.05E−05

B3: cr629 (nucleic acid)
guide: GTTTAAGAGCTAAGCTGGAAACAGCATAGCAACTTTAAATAAGGCTAGTCCGTTATCAAATTGAAAAATTGGCACCGAGTCGGTGCT
modifications: listed as DNA, chemistry not fully specified
  Mean relative activity: −5.97E−5

B4: cr431 (nucleic acid)
guide: GTTTAAGAGCTAAGCTGGAAACAGCATAGCAAGGTTAAATAAGGCTAGTCCGTTATCAACTTGAGAAAGTGGCACCGCGTCGGTGCT
modifications: listed as DNA, chemistry not fully specified
  Mean relative activity: −0.0002713

B5: cr579 (nucleic acid)
guide: GTTTAAGAGCTAAGCTGGAAACAGCATAGCAAGTTTAAATAAGGCTAGTCCCATATCAACTTGAAAAAGTGGCACCGAGTCGGTGCT
modifications: listed as DNA, chemistry not fully specified
  Mean relative activity: −0.000418

B6: cr535 (nucleic acid)
guide: GTTTAAGAGCTAAGCTGGAAACAGCATAGCAAGTTTAAATAAGGCTAGTCAGTTATCAACTTGAAAAAGTGGCACCGAGTCGGTGCT
modifications: listed as DNA, chemistry not fully specified
  Mean relative activity: −0.0004281

B7: cr751 (nucleic acid)
guide: GTTTAAGAGCTAAGCTGGAAACAGCATCGCAACTTTAAATAAGGCTAGTCCTTTATCAACTTGAAAAAGTGGCACCGAGTCGGTGCT
modifications: listed as DNA, chemistry not fully specified
  Mean relative activity: −0.000557

B8: cr039 (nucleic acid)
guide: GATTATGAGCTAAGCTGGAAACAGCATAGCAAGTTTAAATAAGGCTAGTCCGTTATCAACTTGAAAAAGTGGCACCGAGTCGGTGCT
modifications: listed as DNA, chemistry not fully specified
  Mean relative activity: −0.0006181

B9: cr178 (nucleic acid)
guide: GTTTAAGAGCTAAGCTGGAAACAGCATAGCAATTTTAAATGAGGCTAGTCCGTTATCGACTTGAAAAAGTGGCACCGAGTCGGTGCT
modifications: listed as DNA, chemistry not fully specified
  Mean relative activity: −0.0008744

B10: cr326 (nucleic acid)
guide: GTTTAAGAGCTAAGCTGGAAACAGCATAGCAAGCTTAAATAACGCTAGTCGGTTATCAACTTGAAAAAGTGGCACCGAGTCGGTGCT
modifications: listed as DNA, chemistry not fully specified
  Mean relative activity: −0.001062

B11: cr637 (nucleic acid)
guide: GTTTAAGAGCTAAGCTGGAAACAGCATATCAAGATTAAATAAGGCTAGTCCGTTATCAACTTGAGAAAGTGGCACCGAGTCGGTGCT
modifications: listed as DNA, chemistry not fully specified
  Mean relative activity: −0.001265

B12: cr828 (nucleic acid)
guide: GTTTAAGAGCTAAGCTGGAAACAGCATAGCAGGTTTAAATAAGGCTAGTCCGTTATCAACTTGAAAAAGTGGCACCGAGTCGGTGCT
modifications: listed as DNA, chemistry not fully specified
  Mean relative activity: 1.028
